Source: the RNAGym collection of RNA variant scans (doi:10.7554/elife.80360)

B1: Hairpin Ribozyme (parent)
chain: GUCCUCUUUCACGUGCGCGUGAAAGAGAGAAGUGAACCAGAGAAACACACGUUGUGGUAUAUUACCUGGUA

Variants of: B1
Assay: self-cleavage, relative activity (ratio to wild type); higher = more cleavage; co-transcriptional

In order of falling self-cleavage:
1. U14A G34U  1.47
2. C18A G34A  1.33
3. U9C A28G  1.33
4. U58C A71G  1.31
5. C18A A41C  1.21
6. C18U A71G  1.09
7. U14A U60A  0.987
8. U7G C65A  0.975
9. G19U U53A  0.971
10. C12U A23C  0.93
11. G15C G19A  0.913
12. C12G G15A  0.881
13. C6U G51U  0.88
14. A24U U70A  0.877
15. C18A A24U  0.86
16. A35U  0.811
17. C16U A36U  0.804
18. A36C U52A  0.768
19. A11C U60A  0.716
20. U20A U58A  0.709
21. U8A A28G  0.684
22. A24U G25U  0.682
23. C18A G21U  0.669
24. C3A C65A  0.662
25. A11U U58G  0.65
26. A11C A26G  0.645
27. A22G G25A  0.623
28. U8A U53G  0.59
29. C18G G25A  0.578
30. U5G C18G  0.577
31. A22G A64G  0.565
32. A28G G54U  0.541
33. G13U A36C  0.537
34. C12A G54U  0.53
35. C18G A26U  0.512
36. G54A U55C  0.502
37. A28C U52A  0.492
38. A23U U55G  0.448
39. G17C U60G  0.425
40. C12G A47C  0.417
41. C6A A11C  0.415
42. G19A C50U  0.401
43. U9A G54A  0.392
44. G27A U70C  0.391
45. C6U C50U  0.386
46. G15U C37A  0.386
47. U2A A41C  0.379
48. C6G U70G  0.361
49. A26G C50U  0.347
50. G21C G68A  0.321
51. C66A U70C  0.305
52. G68A U70G  0.3
53. C50A U53C  0.296
54. A26G U67G  0.281
55. G19C A39G  0.28
56. U53C U67C  0.279
57. G19U A44C  0.275
58. G21C A31G  0.275
59. G1C G54U  0.274
60. U5A C12A  0.273
61. G57U  0.273
62. A49C U55C  0.273
63. U55A U67G  0.27
64. U14G A31C  0.267
65. A24G U67G  0.263
66. U7A A45U  0.261
67. A23C G68A  0.26
68. U55C U58A  0.257
69. U9G G25C  0.255
70. C16G A61U  0.253
71. U55G G69U  0.25
72. C46U U60C  0.247
73. G57C A59G  0.244
74. A24C A30C  0.242
75. U62C A71G  0.236
76. U33C A43U  0.231
77. A43U U52A  0.229
78. A49U G57U  0.228
79. G42U A45C  0.227
80. A64G C66G  0.226
81. G27U G29A  0.225
82. A45C A64U  0.223
83. U2A U60G  0.222
84. C6U U67C  0.222
85. C12U A43U  0.22
86. A39G U58A  0.217
87. U5A G42A  0.217
88. C4A A49C  0.213
89. U8A C50G  0.21
90. G42U C65G  0.209
91. C50U U60G  0.205
92. U20A G27U  0.203
93. G34C A59U  0.202
94. G68U U70C  0.201
95. C4U U60A  0.199
96. C4U A35U  0.199
97. C6U A45U  0.194
98. A24G A43C  0.19
99. U8C C46G  0.188
100. G21C C48G  0.184
101. U8A G29A  0.183
102. G32C A64C  0.183
103. U63C G69U  0.183
104. G25U C37G  0.182
105. C6A A47U  0.182
106. G17C G68U  0.181
107. G25U G57U  0.179
108. U63A C65G  0.173
109. U8C G57C  0.172
110. G57A A59G  0.171
111. U33G U52A  0.17
112. C4A G57U  0.169
113. G56A A59C  0.169
114. C4U G54A  0.166
115. C12U A45U  0.163
116. G1U G42U  0.162
117. A59G G69C  0.161
118. A49C U52C  0.16
119. A23G A49C  0.159
120. A23U C48A  0.157
121. G56U G68C  0.157
122. G40A G68U  0.156
123. C16A A44G  0.153
124. A39G A61U  0.152
125. C6U U67A  0.151
126. C50A G68U  0.15
127. G42C A47U  0.147
128. G32C A45C  0.145
129. A44G U67C  0.145
130. G34A A47U  0.144
131. U2C A49U  0.141
132. A26U G42C  0.139
133. A45C A64C  0.138
134. G27U U62A  0.137
135. C37A A61C  0.136
136. A45U C48U  0.135
137. G29C A61G  0.135
138. A30U G32C  0.132
139. G27C A31C  0.131
140. G21U A43U  0.129
141. G21A A30C  0.128
142. C38G A47C  0.128
143. G29C C37U  0.121
144. C10U A30U  0.12
145. G32A G57C  0.117
146. A26U C65G  0.111
147. G29A A47C  0.107
148. A31C G57A  0.107
149. U55C U62A  0.106
150. C4U A30C  0.104
151. G29A C38G  0.101
152. G21C G40C  0.0941
153. C48G A61U  0.0929
154. A30G U70C  0.0846
155. C37A C48U  0.0819
156. C18U U62G  0.0807
157. G51U A59U  0.0798
158. U2A A39G  0.0775
159. A30G G40A  0.0732
160. A45G U70C  0.0703
161. A30U A61C  0.069
162. G27C A47U  0.0683
163. U5A C46U  0.0644
164. U5C A35U  0.0604
165. G27U U63A  0.0592
166. U33C A44G  0.0547
167. A43U G54C  0.0498
